Key:
Assay in all cases: ELISA
Conditions in all cases: 0.5 μg coated receptor, read off a plot
[1] = biological target: Manduca sexta CR12 CAD fragment corresponding to cadherin repeat 12 (CAD-CR12)
[2] = biological target: Manduca sexta alkaline phosphatase (ALP), recombinant
[3] = biological target: Manduca sexta aminopeptidase N 1 (APN1), recombinant

**Q.** For “Cry1Ab wild type toxin (from UniProt P0A370) G439D”, which response ([1]; toxin 6.25 nM, parent: est. 0.46) is on record?
**A.** The response was 0.12 ABS (490).

**Q.** What about the response ([1]; toxin 12.5 nM, parent: est. 0.76) of the same substance?
**A.** The response was 0.2 ABS (490).

**Q.** And the response ([1]; toxin 25 nM, parent: est. 1.3)?
**A.** Its response is 0.45 ABS (490).

**Q.** What about the response ([1]; toxin 50 nM, parent: est. 2.0) of the same substance?
**A.** Its response is 0.76 ABS (490).

**Q.** What about the response ([1]; toxin 100 nM, parent: est. 2.4) of the same substance?
**A.** The response was 1.2 ABS (490).

**Q.** And the response ([2]; toxin 6.25 nM, parent: est. 0.23)?
**A.** Its response is 0.03 ABS (490).

**Q.** What about the response ([2]; toxin 12.5 nM, parent: est. 0.39) of the same substance?
**A.** Its response is 0.05 ABS (490).

**Q.** What about the response ([2]; toxin 25 nM, parent: est. 0.75) of the same substance?
**A.** The response was 0.13 ABS (490).

**Q.** What about the response ([2]; toxin 50 nM, parent: est. 1.5) of the same substance?
**A.** Its response is 0.34 ABS (490).

**Q.** And the response ([2]; toxin 100 nM, parent: est. 2.2)?
**A.** Its response is 0.68 ABS (490).

**Q.** What about the response ([3]; toxin 6.25 nM, parent: est. 0.27) of the same substance?
**A.** The response was 0.09 ABS (490 nm).

**Q.** And the response ([3]; toxin 12.5 nM, parent: est. 0.48)?
**A.** Its response is 0.12 ABS (490 nm).

**Q.** And the response ([3]; toxin 25 nM, parent: est. 0.95)?
**A.** The response was 0.27 ABS (490 nm).

**Q.** And the response ([3]; toxin 50 nM, parent: est. 1.6)?
**A.** The response was 0.61 ABS (490 nm).

**Q.** And the response ([3]; toxin 100 nM, parent: est. 2.1)?
**A.** Its response is 1.1 ABS (490 nm).
